Paper doi:10.1101/2025.11.26.690573

Tests used:
[1] = target: biotinylated N8~CRL1 with wild type RBX1 (UniProt Q15843); experiment: BLI; CSN and N8~CRL1 in a saturating amount of CSN5i-1a; who was immobilised not given
[2] = target: biotinylated N8~CRL1 with wild type RBX1 (UniProt Q15843); experiment: BLI; CSN and N8~CRL1 in a saturating amount of CSN5i-3; who was immobilised not given

KD with CSN5i-1a [1]: 1800 nM | KD with CSN5i-3 [2]: 26 nM
Substance: COP9 signalosome (CSN), eight-subunit complex, tag-free (from UniProt Q13098 1-491; P61201 1-443; Q9UNS2 1-409; Q9BT78 1-406; Q92905 1-334; Q7L5N1 1-327; Q9H9Q2 1-239; Q99627 1-209)
